Reference: article PMC10533412, “Phosphoantigens glue butyrophilin 3A1 and 2A1 to activate Vγ9Vδ2 T cells” (Nature, 2023)
Blank lines part the entries; values can stand above or below the binder they belong to.

What was measured:
[1] = biological target: BTN3A1 B30.2 domain, O00481; assay: ITC; details: chain shown with the change; with HMBPP
[2] = biological target: BTN3A1 B30.2 domain (human) (UniProt O00481)
Chain of BTN3A1 B30.2 domain (human) (O00481 328-513): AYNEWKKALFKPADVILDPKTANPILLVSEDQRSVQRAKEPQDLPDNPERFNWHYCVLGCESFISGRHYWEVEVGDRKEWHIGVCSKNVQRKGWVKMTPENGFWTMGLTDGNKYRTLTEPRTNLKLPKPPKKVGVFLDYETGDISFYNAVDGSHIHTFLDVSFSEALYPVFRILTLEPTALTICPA

Chain of BTN3A1 B30.2 domain, O00481 (O00481 328-513): as above

Kd [1]: 189 nM
B1: BTN2A2 B30.2 domain, Q8WVV5 W374R; M506T (protein)
chain: EELRWRRTFLHAADVVLDPDTAHPELFLSEDRRSVRRGPYRQRVPDNPERFDSQPCVLGRESFASGKHYWEVEVENVMVWTVGVCRHSVERKGEVLLIPQNGFWTLEMFGNQYRALSSPERILPLKESLCRVGVFLDYEAGDVSFYNMRDRSHIYTCPRSAFTVPVRPFFRLGSDDSPIFICPALTGASGVTVPEEGLKLHRVGTHQSL

AFM-SCFS binding force between a Vγ9Vδ2 T cell and a MIA PaCa-2 cell, without and with HMBPP treatment [2]: 1550 pN
B2: BTN2A1 B30.2 domain (domain or fragment)
chain: EELRWRRTFLHAVDVVLDPDTAHPDLFLSEDRRSVRRCPFRHLGESVPDNPERFDSQPCVLGRESFASGKHYWEVEVENVIEWTVGVCRDSVERKGEVLLIPQNGFWTLEMHKGQYRAVSSPDRILPLKESLCRVGVFLDYEAGDVSFYNMRDRSHIYTCPRSAFSVPVRPFFRLGCEDSPIFICPALTGANGVTVPEEGLTLHRVGTHQSL
